Experimental data reported in patent US20240368233A1 (University of Washington, published 2024).

Assays:
[1] = molecular target: the molecule itself; experiment: SEC titration of the C4 hub alone (normalised A230, concentrations per monomer) and negative-stain EM; self-association of hubs
LHD29 chainB [2] = molecular target: T1, LHD29 chainB; experiment: BLI, global kinetic fit, 1:1 model
T1 construct: also called LHD29B; 29B
T1 chain: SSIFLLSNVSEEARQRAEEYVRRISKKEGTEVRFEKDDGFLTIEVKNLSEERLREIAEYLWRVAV
Protocol: (§1) Biolayer interferometry experiments were performed on an OctetRED96 BLI system (ForteBio, Menlo Park, CA). Streptavidin coated biosensors were first equilibrated for at least 10 minutes in Octet buffer (10 mM HEPES pH 7.4, 150 mM NaCl, 3 mM EDTA, 0.05% Surfactant P20) supplemented with 1 mg/ml Bovine Serum Albumin (SigmaAldrich). Enzymatically biotinylated designs were immobilized onto the biosensors by dipping the biosensors into a solution with 10-50 nM protein for 30-120 s. This was followed by dipping in fresh octet buffer to establish a baseline for 120 s. Titration experiments were performed at 25° C. while rotating at 1,000 r.p.m. Association of designs was allowed by dipping biosensors in solutions containing designed protein diluted in octet buffer until equilibrium was approached followed by dissociation by dipping the biosensors into fresh buffer solution in order to monitor the dissociation kinetics. Steady-state and global kinetic fits were performed using the manufacturer's software (Data Analysis 9.1) assuming a 1:1 binding model.

[3] = molecular target: the molecule itself; experiment: BLI conditions (self-association)
LHD29 chainB [4] = molecular target: T1, LHD29 chainB; experiment: BLI, steady state fit
Protocol: as §1

101B14 = molecular target: T2, 101B14; experiment: SEC binding assay (Superdex 200, normalised A230) of A, B and the mixture AB
T2 construct: also called LHD101 B14
T2 single chain, LHD101 chain B fused to DHR14: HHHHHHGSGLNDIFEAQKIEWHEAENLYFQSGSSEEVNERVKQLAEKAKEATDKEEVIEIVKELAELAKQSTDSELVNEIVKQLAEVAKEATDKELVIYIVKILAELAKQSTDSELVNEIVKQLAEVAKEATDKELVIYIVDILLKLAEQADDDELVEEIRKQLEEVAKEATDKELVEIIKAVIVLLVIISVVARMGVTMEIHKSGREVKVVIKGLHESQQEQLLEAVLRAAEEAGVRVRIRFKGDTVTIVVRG

101B82 = molecular target: T3, 101B82; experiment: as above
T3 chain: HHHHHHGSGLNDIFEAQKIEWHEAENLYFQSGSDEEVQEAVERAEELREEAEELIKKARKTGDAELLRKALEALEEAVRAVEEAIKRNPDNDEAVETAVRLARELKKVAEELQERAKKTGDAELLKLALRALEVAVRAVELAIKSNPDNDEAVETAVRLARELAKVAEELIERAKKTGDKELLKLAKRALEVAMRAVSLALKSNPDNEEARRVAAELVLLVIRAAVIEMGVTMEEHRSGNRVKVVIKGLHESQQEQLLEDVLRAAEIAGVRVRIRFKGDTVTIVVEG

101B62 = molecular target: T4, 101B62; experiment: as above
T4 construct: also called LHD101B62
T4 chain: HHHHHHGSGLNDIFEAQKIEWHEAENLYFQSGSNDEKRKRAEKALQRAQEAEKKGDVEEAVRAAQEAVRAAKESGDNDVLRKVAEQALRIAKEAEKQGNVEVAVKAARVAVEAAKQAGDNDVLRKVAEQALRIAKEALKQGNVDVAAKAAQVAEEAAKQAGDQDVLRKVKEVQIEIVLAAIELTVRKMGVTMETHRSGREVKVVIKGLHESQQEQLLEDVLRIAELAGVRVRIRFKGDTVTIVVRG

LHD101 B8 = molecular target: T5, LHD101 B8; experiment: as above
T5 single chain, LHD101 chain B fused to DHR8: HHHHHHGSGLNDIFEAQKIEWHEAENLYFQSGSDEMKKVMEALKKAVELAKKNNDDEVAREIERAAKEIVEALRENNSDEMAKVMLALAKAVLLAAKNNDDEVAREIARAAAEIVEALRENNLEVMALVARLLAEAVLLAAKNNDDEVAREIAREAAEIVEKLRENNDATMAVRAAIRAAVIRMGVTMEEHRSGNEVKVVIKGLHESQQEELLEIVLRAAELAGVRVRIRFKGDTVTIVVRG

DF284B = molecular target: T6, DF284B; experiment: SEC of mixed components; trimer listed in Table 6
T6 construct: Bivalent connector
T6 chain: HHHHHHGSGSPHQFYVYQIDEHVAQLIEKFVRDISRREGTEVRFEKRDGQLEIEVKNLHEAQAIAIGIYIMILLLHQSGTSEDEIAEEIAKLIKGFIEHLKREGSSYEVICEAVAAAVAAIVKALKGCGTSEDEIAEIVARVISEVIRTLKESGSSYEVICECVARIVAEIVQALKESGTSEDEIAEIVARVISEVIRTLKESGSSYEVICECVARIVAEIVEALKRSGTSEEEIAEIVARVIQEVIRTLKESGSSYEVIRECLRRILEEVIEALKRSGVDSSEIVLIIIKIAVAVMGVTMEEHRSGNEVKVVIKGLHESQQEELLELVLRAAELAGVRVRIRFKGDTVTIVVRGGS

[5] = molecular target: the molecule itself; experiment: SEC titration of the protomer alone at several injection concentrations (Superdex 200, normalised A230); self-association
LHD206 chainB [6] = molecular target: T7, LHD206 chainB; experiment: BLI, global kinetic fit, 1:1 model
T7 construct: also called LHD206B
T7 chain: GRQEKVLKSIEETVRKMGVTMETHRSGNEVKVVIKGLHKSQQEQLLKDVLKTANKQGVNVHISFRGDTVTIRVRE
Protocol: as §1

LHD206 chainB [7] = molecular target: T7, LHD206 chainB; experiment: BLI, steady state fit
Protocol: as §1

DFA0 = molecular target: T8, DFA0; experiment: SEC of mixed components; trimer listed in Table 6
T8 construct: Bivalent connector
T8 chain: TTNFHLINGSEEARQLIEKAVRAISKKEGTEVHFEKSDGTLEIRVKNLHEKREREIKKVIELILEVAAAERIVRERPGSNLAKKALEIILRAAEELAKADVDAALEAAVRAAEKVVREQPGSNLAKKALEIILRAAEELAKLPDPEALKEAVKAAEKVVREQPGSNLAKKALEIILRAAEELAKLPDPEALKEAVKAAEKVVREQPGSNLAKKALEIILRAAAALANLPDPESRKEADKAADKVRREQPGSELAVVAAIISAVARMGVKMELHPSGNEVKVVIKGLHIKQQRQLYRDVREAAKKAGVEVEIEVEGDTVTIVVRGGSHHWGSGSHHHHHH

202B57 = molecular target: T9, 202B57; experiment: SEC of mixed components; linear tetramer listed in Table 6, neighbours in the chain
T9 chain: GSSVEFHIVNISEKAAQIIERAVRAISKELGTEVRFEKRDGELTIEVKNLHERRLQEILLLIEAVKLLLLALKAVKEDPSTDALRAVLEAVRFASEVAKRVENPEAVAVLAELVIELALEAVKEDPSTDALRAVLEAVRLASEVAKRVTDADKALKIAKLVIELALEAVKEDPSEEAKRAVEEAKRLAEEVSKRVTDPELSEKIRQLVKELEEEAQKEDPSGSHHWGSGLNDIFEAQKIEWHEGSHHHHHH
Protocol: Complexes and individual components were diluted in 20 mM Tris pH 8.0, 100 mM NaCl. After o/n equilibration of the mixtures at room temperature or 4 degrees C., 500 ul of sample was injected onto a Superdex™ 200 10/300 increase GL (dimers, linear assemblies) or Superose™ 6 increase 10/300 GL (symmetric assemblies) (all columns from GE healthcare) using the absorbance at 230 nm or 473 nm (for GFP tagged components) as read-out. Dimers were mixed at monomer concentrations of 5 μM or higher. Trimer and ABCD tetramer mixtures contained 5 μM of the bivalent connector, and 7.5 μM of each terminal cap (lower absolute concentrations with the same ratios were used for some trimers). ABCA tetramer mixtures contained 5 μM per bivalent connector and 15 μM terminal cap. The hexamer mixture contained 3 μM of components C and D, 3.6 μM of B and E, and 4.4 μM of A and F. The branched assembly shown in FIG. 4A contained 2.8 μM of the trivalent connector and 4 μM of each cap. For the exchange experiment shown in FIG. 5A, the ABC trimer was preincubated at concentrations of 6 μM B and 9 μM each of A and C. C′ was then added to reach a final concentration of 2 μM B, 3 μM each of A and C, and 6 μM C′.

B1: C4-Hub (designed binder)
chain: GNTHFIVVHGSEDAAQLAEELVREISKKEGTEVRFEKKDGLLSIEVKNLSEERQREIQKALQLVQDVANAERVVRERPGSNLAKKALEIILRAAEELAKLDLKASLKAAVRAAEKVVREQPGSELAKKALEIILRAAEELAKLPDPEALHEAVRAAEHVVRSQPGSEAAKEALRIIQEAAELLKESPDPTAIIRAARALLKIARTTGDEEAAKEAIEAAKKAADLARERGDDELVCEALALLVAAQVELLKQQGTSAVEIAKIVARVISEVIRTLKEKGSSYEVICECVARIVAEIVEALKRSGTSAAIIALIVALVISEVIRTLKESGSSFEVILECVIRIVLEIIEALKRSGTSEQDVMLIVMAVLLVVLATLQLSGSGSLEHHHHHH
notes: C4-symmetric homo-oligomeric hub carrying LHD274B; also called C4 53; C4-symmetric hub
B1: binds [1].

B2: LHD29 chainA (designed binder)
chain: TWQWVLINISEEARQRIEEYVRRISKKEGTEVHFEKDDGVLHIRVKNLHEKRAREIHEYAKRVIL
notes: also called LHD29A; 29A
B2 gave a Kd (LHD29 chainB [2]) of 985 nM, a koff (LHD29 chainB [2]) of 0.00068 s⁻¹ and a kon (LHD29 chainB [2]) of 690 M⁻¹ s⁻¹. For the same binder, the binding result [3] was “binds” and the Kd (LHD29 chainB [4]) was 310 nM.

B3: 101A53 (designed binder)
chain: HHHHHHGSGLNDIFEAQKIEWHEAENLYFQSGSNDEKEKLKELLKRAEELAKSPDPEDLKEAVRLAEEVVRERPGSNLAKKALEIILRAAEELAKLPDPEALKEAVKAAEKVVREQPGSNLAKKALEIILRAAAALANLPDPESRKEADKAADKVRREQPGSELAVVAAIISAVARMGVKMELHPSGNEVKVVIKGLHIKQQRQLYRDVREAAKKAGVEVEIEVEGDTVTIVVRG
notes: also called LHD101A53
B3: binds (101B14); binds (101B82); binds (101B62). B3: binds (LHD101 B8); binds (DF284B); no binding [5].

B4: LHD206 chainA (designed binder)
chain: TDELLERLRQLFEELHERGTEIVVEVHINGRKTEIEVQGIDKRLLKIILEVIREEIEREGSSEVEVNVHSGGQTWTFNEK
notes: also called LHD206A
For B4, the Kd (LHD206 chainB [6]) was 2.8 nM, the koff (LHD206 chainB [6]) was 0.00075 s⁻¹ and the kon (LHD206 chainB [6]) was 270000 M⁻¹ s⁻¹. For the same binder, the Kd (LHD206 chainB [7]) was 8.4 nM.

B5: DF202 (designed binder)
chain: NTHFIVVHGTEEARQLAEEIVRLIAEALGTEVRFEKKDGLLSIEVKNLPEEAQRLIQKLLQLAVRIAQAAKSGDNDQLRELAEDALRLAKEAEKLGDLGAAAVAARLAVEAAKQAGDNDVLRKVAEQALRIAKEAEKQGLVDVAVEAARVAVEAAKQAGDNDVLRKVAEQALRIAKEAEKQGNVEVAVKAARVAVEAAKQAGDNDVLRKVAEQALRIVREALKQGNKEVAKKALEVAIEAANQAGDQKLLAEILLLAIEVLVVEMGVTMETHKSGNKVKVVIKGLHESQQETLRKLVHELLRKLGVVAVTQKHGDTVTIYVTEGGSHHWGSGSHHHHHH
notes: Bivalent connector
B5: binds (DFA0); binds (202B57).
